Results taken from patent US5538946A, “Hirudin derivatives with delayed action” (Hoechst Aktiengesellschaft, priority 1988, dated 1996).

Target: thrombin (Homo sapiens, UniProt P00734)
Experiment: In vitro thrombin inhibition assay (coagulation time) as in Example 2, with re-use of isolated Sepharose-hirudin
Type: biochemical
Conditions: isolated from treated plasma, washed with 1 to 1.5 M NaCl, employed again
Method: Female and male Wistar rats with a body weight of about 300 g are anesthetized with ethylurethane (1.5 g/kg i.p.). 1000 AT-U/kg of a hirudin derivative or authentic `Leu-Thr-hirudin`, which has been dissolved in physiological saline, are administered i.v. to the rats. A catheter is implanted in the carotid of the animals for blood sampling. Blood is taken from the animals and treated with citrate for the determination of anti-thrombin activity. 0.1 ml of the blood treated in this way is mixed with 0.2 ml of Tris/HCl buffer (0.1 mol/1; pH 7.4) and preincubated at 37° C. After addition of 0.1 ml of a thrombin solution (10 NIH-U/ml) the coagulation time is determined using a Schnitger and Gross coagulometer. In parallel with the experiment a calibration plot is constructed using reference plasma, from which the particular plasma hirudin or plasma hirudin derivative concentration is read off.
The protein coupling yield is 5 %. The biological activity is determined in vitro as in Example 2. The Sepharose-hirudin is isolated from the treated plasma, washed with a 1 to 1.5 M NaCl solution and again employed in the inhibition assay.

Substance: Sepharose-hirudin: hirudin immobilised on activated CH-Sepharose 4 B (Pharmacia)
- measured activity on re-use in the inhibition assay: within the limit of error of the first measurement
